Data published in paper PMC12170943.

System: OmpRAc (phosphorylated by EnvZAcC) (Acidovorax citrulli xjL12 (group II))
Assay: MST
Conditions: EMSA: 10 mM Tris-HCl pH 7.4, 50 mM KCl, 50 mM MgCl2, 5% glycerol, room temperature 20 min, 50 ng probe in 20 uL, MST: 50 mM Tris-HCl pH 7.4, 150 mM NaCl

PhrpG Cy5 probe (MST) gave a Kd of 5.72 µM.
